From US20190307868A1 come the findings set out here.

Holding throughout (settings): remark: other sources report otherwise
The target in assay [1] is HLA-A02:01 (human). The assay can be described thus: pMHC-I dissociation half-life, 125I-b2m.
Assay [2] has as its target HLA-A02:01 (human). The assay can be described thus: competition with 125I-labelled probe peptide, purified HLA.
In assay [3] the target is HLA-B08:01 (human). The assay can be described thus: peptide-MHC-I complex dissociation half-life, 125I-b2m, 37 C.
In assay [4] the target is HLA-B08:01 (human). The assay can be described thus: competitive inhibition of 125I-labeled probe peptide binding to purified HLA class I.

Usually IC50 stands for the concentration that inhibits the measured activity by half. A higher IC50 goes with a need for much substance. In the assay with HLA-A02:01 (human) [1], LVVVGACGV had a Stability (T1/2 (h)) of 0.6 h. In the assay with HLA-A02:01 (human) [2], this molecule gave an IC50 of 1210 nM.

LVVVGADGV: the Stability (T1/2 (h)) in the assay with HLA-A02:01 (human) [1] is 0 h. In the assay with HLA-A02:01 (human) [2], this molecule displayed an IC50 of 1190 nM.

In the assay with HLA-B08:01 (human) [3], SVCFFFFSV [… (CNOT1(+1))] had a Stability (T1/2 (h)) of 0 h.

LVVVGAVGV returned a Stability (T1/2 (h)) with HLA-A02:01 (human) [1] of 0.6 h.

For the molecule QLIMQLMPF [… (EGFR, T790M)], in the assay with HLA-B08:01 (human) [3], the Stability (T1/2 (h)) was 0 h.

WLHKRGKYI [… (AKT1, E17K)] registered a Stability (T1/2 (h)) with HLA-B08:01 (human) [3] of 1.3 h. Moreover, in the assay with HLA-B08:01 (human) [4], the IC50 amounted to 417 nM.

SLPRFILMEL [… (ALK, L1196M)]: in the assay with HLA-B08:01 (human) [3], the Stability (T1/2 (h)) was 0 h.

On to FLPSTLKSL [… (ESR1, S463P)], for which the Stability (T1/2 (h)) with HLA-B08:01 (human) [3] worked out at 0 h. The same molecule showed an IC50 in the assay with HLA-B08:01 (human) [4] of 1970 nM.
